This note sets out measurements from the supplement of paper PMC11246515.

± gives the standard deviation of the averaged measurements.

The series is described as follows: total protein half-life in vivo (active degradation + dilution); higher = more stable protein.
[1] abbreviates: wild type E. coli NCM3722, growth: C-lim chemostat, doubling time 3 h.
Setting [2] is: wild type E. coli NCM3722, growth: C-lim chemostat, doubling time 6 h.
The mark [3] stands for this setting: wild type E. coli NCM3722, growth: C-lim chemostat, doubling time 12 h.
[4] abbreviates: wild type E. coli NCM3722, growth: P-lim chemostat, doubling time 6 h.
Setting [5] is: wild type E. coli NCM3722, growth: P-lim chemostat, doubling time 12 h.
[6] abbreviates: E. coli NCM3722 delta-clpP delta-lon delta-hslV, growth: N-lim chemostat, doubling time 6 h.
Where [7] appears, read: E. coli NCM3722 delta-clpP, growth: N-lim chemostat, doubling time 6 h.
[8] abbreviates: E. coli NCM3722 delta-hslV, growth: N-lim chemostat, doubling time 6 h.
[9] abbreviates: E. coli NCM3722 delta-lon, growth: N-lim chemostat, doubling time 6 h.
[10] abbreviates: E. coli NCM3722 delta-smpB, growth: N-lim chemostat, doubling time 6 h.
Where [11] appears, read: wild type E. coli NCM3722, growth: N-lim chemostat, doubling time 6 h.
Where [12] appears, read: wild type E. coli NCM3722, growth: N-lim chemostat, doubling time 12 h.

“MEQPVIPVRNIYYMLTYAWGYLQEIKQANLEAIPGNNLLDILGYVLNKGVLQLSRRGLELDYNPNTEIIPGIKGRIEFAKTIRGFHLNHGKTVSTFDMLNEDTLANRIIKSTLAILIKHEKLNSTIRDEARSLYRKLPGISTLHLTPQHFSYLNGGKNTRYYKFVISVCKFIVNNSIPGQNKGHYRFYDFERNEKEMSLLYQKFLYEFCRRELTSANTTRSYLKWDASSISDQSLNLLPRMETDITIRSSEKILIVDAKYYKSIFSRRMGTEKFHSQNLYQLMNYLWSLKPENGENIGGLLIYPHVDTAVKHRYKINGFDIGLCTVNLGQEWPCIHQELLDIFDEYLK”: the “total protein half-life in vivo” value runs as follows: under setting [1], 3.05 ± 0.89 h; under setting [2], 5.31 h; under setting [3], greater than 16 h; under setting [4], 5.09 ± 0.42 h; under setting [5], 7.9 ± 0.14 h.

Take “MNIRPLHDRVIVKRKEVETKSAGGIVLTGSAAAKSTRGEVLAVGNGRILENGEVKPLDVKVGDIVIFNDGYGVKSEKIDNEEVLIMSESDILAIVEA [P0A6F9]”: the “total protein half-life in vivo” value under setting [6] came to 5.5416 ± 0.005 h; the “total protein half-life in vivo” value under setting [7] stood at 5.34 ± 0.43 h; the “total protein half-life in vivo” value under setting [8] amounted to 5.26 ± 0.4 h; the “total protein half-life in vivo” value under setting [9] was 6.18 ± 0.9 h; the “total protein half-life in vivo” value under setting [10] was found to be 5.092 ± 0.02 h; the “total protein half-life in vivo” value under setting [1] came out at 3.051 ± 0.0027 h. The “total protein half-life in vivo” value runs as follows: under setting [2], 6.27 ± 0.87 h; under setting [3], 10.6 ± 1.3 h; under setting [11], 5.03 ± 0.15 h; under setting [12], 8.21 ± 0.97 h; under setting [4], 5.36 ± 0.23 h; under setting [5], 12.5 ± 1.7 h.

Turning to MTTSMLNAKLLPTAPSAAVVVVRVVVVVGNAP, the “total protein half-life in vivo” value under setting [6] came to 3.54 h.

On to “MNPQLLRVTNRIIERSRETRSAYLARIEQAKTSTVHRSQLACGNLAHGFAACQPEDKASLKSMLRNNIAIITSYNDMLSAHQPYEHYPEIIRKALHEANAVGQVAGGVPAMCDGVTQGQDGMELSLLSREVIAMSAAVGLSHNMFDGALFLGVCDKIVPGLTMAALSFGHLPAVFVPSGPMASGLPNKEKVRIRQLYAEGKVDRMALLESEAASYHAPGTCTFYGTANTNQMVVEFMGMQLPGSSFVHPDSPLRDALTAAAARQVTRMTGNGNEWMPIGKMIDEKVVVNGIVALLATGGSTNHTMHLVAMARAAGIQINWDDFSDLSDVVPLMARLYPNGPADINHFQAAGGVPVLVRELLKAGLLHEDVNTVAGFGLSRYTLEPWLNNGELDWREGAEKSLDSNVIASFEQPFSHHGGTKVLSGNLGRAVMKTSAVPVENQVIEAPAVVFESQHDVMPAFEAGLLDRDCVVVVRHQGPKANGMPELHKLMPPLGVLLDRCFKIALVTDGRLSGASGKVPSAIHVTPEAYDGGLLAKVRDGDIIRVNGQTGELTLLVDEAELAAREPHIPDLSASRVGTGRELFSALREKLSGAEQGATCITF [P0ADF6]”, for which the “total protein half-life in vivo” value was 3.58 ± 0.62 h under setting [6]; 3.24 h under setting [7]; 3.51 ± 0.99 h under setting [8]; 3.46 h under setting [9]; 2.97 ± 0.12 h under setting [10]; 3.07 ± 0.33 h under setting [1]. Further, the “total protein half-life in vivo” value by setting is: under setting [3], 8.61 h; under setting [11], 2.98 ± 0.2 h; under setting [12], 4.531 ± 0.012 h; under setting [4], 5.33 ± 0.3 h; under setting [5], 9.86 ± 0.35 h.

For the sequence “MSKLFWAMLSFITRLPVPRRWSQGLDFEHYSRGIITFPLIGLLLGAISGLVFMVLQAWCGAPLAALFSVLVLVLMTGGFHLDGLADTCDGVFSARSRDRMLEIMRDSRLGTHGGLALIFVVLAKILVLSELALRGESILASLAAACAVSRGTAALLMYRHRYAREEGLGNVFIGKIDGRQTCVTLGLAAIFAAVLLPGMHGVAAMVVTMVAIFILGQLLKRTLGGQTGDTLGAAIELGELVFLLALL”, the “total protein half-life in vivo” value under setting [6] stood at 7.472 ± 0.028 h; the “total protein half-life in vivo” value under setting [7] came to 6.699 ± 0.053 h; the “total protein half-life in vivo” value under setting [8] was 6.15 ± 0.36 h; the “total protein half-life in vivo” value under setting [9] was 6.52 h; the “total protein half-life in vivo” value under setting [10] is greater than 8 h; the “total protein half-life in vivo” value under setting [1] was 3.48 ± 0.11 h. In addition, the “total protein half-life in vivo” value is, setting by setting: under setting [2], 5.85 ± 0.84 h; under setting [3], 12.7 ± 1.4 h; under setting [11], 5.87 ± 0.4 h; under setting [12], 11.3 h; under setting [4], 5.6 h; under setting [5], 12.4 ± 1.2 h.

Consider “MKTSDNERIKYEITGQAVLQILRMKINFSLQTLIKQLLVMKSAEEDAFRRDLIDSIIRDFSNSDSGGPNRRTATADNKSMFNGKKINRIH”, for which, under setting [5], the “total protein half-life in vivo” value is 3.79 h.

“MADILLLDNIDSFTYNLADQLRSNGHNVVIYRNHIPAQTLIERLATMSNPVLMLSPGPGVPSEAGCMPELLTRLRGKLPIIGICLGHQAIVEAYGGYVGQAGEILHGKASSIEHDGQAMFAGLTNPLPVARYHSLVGSNIPAGLTINAHFNGMVMAVRHDADRVCGFQFHPESILTTQGARLLEQTLAWAQQKLEPANTLQPILEKLYQAQTLSQQESHQLFSAVVRGELKPEQLAAALVSMKIRGEHPNEIAGAATALLENAAPFPRPDYLFADIVGTGGDGSNSINISTASAFVAAACGLKVAKHGNRSVSSKSGSSDLLAAFGINLDMNADKSRQALDELGVCFLFAPKYHTGFRHAMPVRQQLKTRTLFNVLGPLINPAHPPLALIGVYSPELVLPIAETLRVLGYQRAAVVHSGGMDEVSLHAPTIVAELHDGEIKSYQLTAEDFGLTPYHQEQLAGGTPEENRDILTRLLQGKGDAAHEAAVAANVAMLMRLHGHEDLQANAQTVLEVLRSGSAYDRVTALAARG”: the “total protein half-life in vivo” value under setting [6] was 3.96 ± 0.42 h; the “total protein half-life in vivo” value under setting [7] came to 3.018 ± 0.0036 h; the “total protein half-life in vivo” value under setting [8] was determined as 2.96 ± 0.18 h; the “total protein half-life in vivo” value under setting [9] was found to be 3.02 ± 0.12 h; the “total protein half-life in vivo” value under setting [10] stood at 2.769 ± 0.019 h; the “total protein half-life in vivo” value under setting [1] amounted to 3.23 ± 0.33 h. For the same sequence, the “total protein half-life in vivo” value runs as follows: under setting [2], 4.79 ± 0.1 h; under setting [3], 10.4 ± 1.9 h; under setting [11], 3.01 ± 0.27 h; under setting [12], 3.72 ± 0.29 h; under setting [4], 6.54 ± 1.6 h; under setting [5], 12.2 ± 3.9 h.

For “MSHWATFKQTATNLWVTLRHDILALAVFLNGLLIFKTIYGMSVNLLDIFHIKAFSELDLSLLANAPLFMLGVFLVLNSIGLLFRAKLAWAISIILLLIALIYTLHFYPWLKFSIGFCIFTLVFLLILRKDFSHSSAAAGTIFAFISFTTLLFYSTYGALYLSEGFNPRIESLMTAFYFSIETMSTVGYGDIVPVSESARLFTISVIISGITVFATSMTSIFGPLIRGGFNKLVKGNNHTMHRKDHFIVCGHSILAINTILQLNQRGQNVTVISNLPEDDIKQLEQRLGDNADVIPGDSNDSSVLKKAGIDRCRAILALSDNDADNAFVVLSAKDMSSDVKTVLAVSDSKNLNKIKMVHPDIILSPQLFGSEILARVLNGEEINNDMLVSMLLNSGHGIFSDNDELETKADSKESAQK”, the “total protein half-life in vivo” value by setting is: under setting [6], 5.54 ± 0.5 h; under setting [7], 5.47 h; under setting [9], 5.25 ± 0.22 h; under setting [10], 4.7 ± 0.18 h; under setting [1], 2.43 ± 0.039 h; under setting [2], 4.78 ± 0.82 h. For the same sequence, the “total protein half-life in vivo” value is, setting by setting: under setting [3], 7.86 h; under setting [11], 4.54 ± 0.47 h; under setting [12], 9.01 ± 0.45 h; under setting [5], 9.87 ± 0.24 h.

Turning to “MNKTAIALLALLASSASLAATPWQKITQPVPGSAQSIGSFSNGCIVGADTLPIQSEHYQVMRTDQRRYFGHPDLVMFIQRLSSQVSNLGMGTVLIGDMGMPAGGRFNGGHASHQTGLDVDIFLQLPKTRWTSAQLLRPQALDLVSRDGKHVVSTLWKPEIFSLIKLAAQDKDVTRIFVNPAIKQQLCLDAGTDRDWLRKVRPWFQHRAHMHVRLRCPADSLECEDQPLPPSGDGCGAELQSWFEPPKPGTTKPEKKTPPPLPPSCQALLDEHVI [P0C0T5]”, the “total protein half-life in vivo” value stood at 0.831 h under setting [8] and 0.792 h under setting [1].

Consider “MKISRETLHQLIENKLCQAGLKREHAATVAEVLVYADARGIHSHGAVRVEYYAERISKGGTNREPEFRLEETGPCSAILHADNAAGQVAAKMGMEHAIKTAQQNGVAVVGISRMGHSGAISYFVQQAARAGFIGISMCQSDPMVVPFGGAEIYYGTNPLAFAAPGEGDEILTFDMATTVQAWGKVLDARSRNMSIPDTWAVDKNGVPTTDPFAVHALLPAAGPKGYGLMMMIDVLSGVLLGLPFGRQVSSMYDDLHAGRNLGQLHIVINPNFFSSSELFRQHLSQTMRELNAITPAPGFNQVYYPGQDQDIKQRKAAVEGIEIVDDIYQYLISDALYNTSYETKNPFAQ”, for which the “total protein half-life in vivo” value by setting is: under setting [1], 2.88 h; under setting [2], 5.52 ± 0.59 h; under setting [5], greater than 16 h.
